This passage reports Kd results from article PMC7952905.

The target in the test is human ACE2 extracellular domain (19-615) (human) (UniProt Q9BYF1). In words: SPR. Background: Surface plasmon resonance follows binding to a sensor surface in real time, without labels.
Sequence of human ACE2 extracellular domain (19-615) (human) (Q9BYF1 19-615): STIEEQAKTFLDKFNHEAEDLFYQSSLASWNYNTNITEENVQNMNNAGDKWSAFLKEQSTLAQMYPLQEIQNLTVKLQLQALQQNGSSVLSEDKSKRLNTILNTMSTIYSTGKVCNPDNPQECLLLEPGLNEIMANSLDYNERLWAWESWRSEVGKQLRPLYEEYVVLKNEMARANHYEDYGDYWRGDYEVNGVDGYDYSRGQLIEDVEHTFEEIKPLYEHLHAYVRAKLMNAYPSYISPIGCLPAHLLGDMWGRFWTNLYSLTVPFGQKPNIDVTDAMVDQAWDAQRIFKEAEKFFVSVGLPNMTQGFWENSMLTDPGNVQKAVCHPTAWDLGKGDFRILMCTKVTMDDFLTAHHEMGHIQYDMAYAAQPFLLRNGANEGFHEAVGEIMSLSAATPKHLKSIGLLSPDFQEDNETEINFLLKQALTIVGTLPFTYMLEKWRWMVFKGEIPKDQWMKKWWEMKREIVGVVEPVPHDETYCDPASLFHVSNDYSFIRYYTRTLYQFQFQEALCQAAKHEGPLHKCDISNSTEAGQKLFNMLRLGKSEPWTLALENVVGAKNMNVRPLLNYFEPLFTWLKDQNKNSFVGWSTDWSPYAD

As usually defined, the Kd is a measure of binding affinity in units of concentration. On to “PCoV_GX RBD (331-524) (domain or fragment)”, for which the Kd worked out at 2.7 nM.
